{"source": "patent US20240317834A1", "about": "“COMPOSITIONS AND METHODS FOR NEUROLOGICAL DISEASES” (CODA BIOTHERAPEUTICS, INC., priority 2020, published 2024)", "molecules": {"B1": {"name": "CODA342: engineered chimeric LGIC receptor, L131R in SEQ ID NO: 33 (protein)", "chain": "MRCSPGGVWLALAASLLHVSLQGEFQRKLYKELVKNYNPLERPVANDSQPLTVYFSLSLLQIMDVDEKNQVLTTNIWLQMSWTDHYLQWNVSEYPGVKTVRFPDGQIWKPDILLYNSADERFDATFHTNVRVNSSGHCQYLPPGIFKSSCPMDLKNFPMDVQTCKLKFGSWSYGGWSLDLQMQEADISGYIPNGEWDLVGIPGKRSERFYECCKEPYPDVTFTVTMRRRMGYYLIQMYIPSLLIVILSWISFWINMDAAPARVGLGITTVLTMTTQSSGSRASLPKVSYVKAIDIWMAVCLLFVFSALLEYAAVNFVSRQHKELLRFRRKRRHHKSPMLNLFQEDEAGEGRFNFSAYGMGPACLQAKDGISVKGANNSNTTNPPPAPSKSPEEMRKLFIQRAKKIDKISRIGFPMAFLIFNMFYWIIYKIVRREDVHNQ", "modifications": "synthetic sequence of chimeric LGIC"}}, "test_system": "Lenti-X 293T cells", "experiment": "YFP fluorescence quenching anion reporter plate reader assay of engineered receptors stimulated with acetylcholine or a non-native ligand", "assay_type": "cell-based", "method_in_brief": "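Lenti-X 293T cells carrying a YFP anion reporter were transiently transfected with channel DNA and assayed the next day in HEPES-buffered ECS at pH 7.2. Ligand (acetylcholine or non-native ligand) was added in NaI-substituted ECS. Percent quench was the mean of the last 10 s relative to the 15 s pre-addition baseline.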", "data": [{"molecule": "B1", "values": [{"measurement": "YFP fluorescence quenching using CNL001", "setting": "1 nM CNL001, first column", "value": 23.532, "unit": "%"}, {"measurement": "YFP fluorescence quenching using CNL001", "setting": "1 nM CNL001, second column", "value": 26.054, "unit": "%"}, {"measurement": "YFP fluorescence quenching using TC-5619/Bradanicline", "setting": "1 nM brd", "value": "−7.83", "unit": "%"}, {"measurement": "YFP fluorescence quenching using TC-5619/Bradanicline", "setting": "3 nM brd", "value": "−12.89", "unit": "%"}, {"measurement": "YFP fluorescence quenching using Varenicline", "setting": "3 nM var, first column", "value": 0.271}, {"measurement": "YFP fluorescence quenching using Varenicline", "setting": "3 nM var, second column", "value": "−3.613"}, {"measurement": "YFP fluorescence quenching using CNL001", "setting": "10 nM CNL001, first column", "value": 43.69, "unit": "%"}, {"measurement": "YFP fluorescence quenching using CNL001", "setting": "10 nM CNL001, second column", "value": 54.016, "unit": "%"}, {"measurement": "YFP fluorescence quenching using TC-5619/Bradanicline", "setting": "10 nM brd", "value": "−10.47", "unit": "%"}, {"measurement": "YFP fluorescence quenching using TC-5619/Bradanicline", "setting": "30 nM brd", "value": 59.48, "unit": "%"}, {"measurement": "YFP fluorescence quenching using Facinicline", "setting": "30 nM fac", "value": "−6.2"}, {"measurement": "YFP fluorescence quenching using Varenicline", "setting": "30 nM var, first column", "value": "−4.935"}, {"measurement": "YFP fluorescence quenching using Varenicline", "setting": "30 nM var, second column", "value": "−4.363"}, {"measurement": "YFP fluorescence quenching using CNL001", "setting": "50 nM CNL001, first column", "value": 59.955, "unit": "%"}, {"measurement": "YFP fluorescence quenching using CNL001", "setting": "50 nM CNL001, second column", "value": 56.091, "unit": "%"}, {"measurement": "YFP fluorescence quenching using ABT-126", "setting": "50 nM abt", "value": "−18.14", "unit": "%"}, {"measurement": "YFP fluorescence quenching using CNL001", "setting": "100 nM CNL001, first column", "value": 64.536, "unit": "%"}, {"measurement": "YFP fluorescence quenching using CNL001", "setting": "100 nM CNL001, second column", "value": 58.987, "unit": "%"}, {"measurement": "YFP fluorescence quenching using CNL002", "setting": "100 nM CNL002", "value": "−17.2", "unit": "%"}, {"measurement": "YFP fluorescence quenching using ABT-126", "setting": "100 nM abt", "value": "−18.14", "unit": "%"}, {"measurement": "YFP fluorescence quenching using AZD-0328", "setting": "100 nM azd0328", "value": 1.79, "unit": "%"}, {"measurement": "YFP fluorescence quenching using TC-5619/Bradanicline", "setting": "100 nM brd", "value": 70.19, "unit": "%"}, {"measurement": "YFP fluorescence quenching using ABT-126", "setting": "300 nM abt", "value": "−0.81", "unit": "%"}, {"measurement": "YFP fluorescence quenching using AZD-0328", "setting": "300 nM azd0328", "value": 66.58, "unit": "%"}, {"measurement": "YFP fluorescence quenching using TC-5619/Bradanicline", "setting": "300 nM brd", "value": 75.11, "unit": "%"}, {"measurement": "YFP fluorescence quenching using Facinicline", "setting": "300 nM fac", "value": 76.75}, {"measurement": "YFP fluorescence quenching using Varenicline", "setting": "300 nM var, first column", "value": 0.282}, {"measurement": "YFP fluorescence quenching using Varenicline", "setting": "300 nM var, second column", "value": 2.32}, {"measurement": "YFP fluorescence quenching using ABT-126", "setting": "500 nM abt", "value": 23.29, "unit": "%"}, {"measurement": "YFP fluorescence quenching using Varenicline", "setting": "500 nM var, first column", "value": 23.777}, {"measurement": "YFP fluorescence quenching using Varenicline", "setting": "500 nM var, second column", "value": 18.376}, {"measurement": "YFP fluorescence quenching using CNL001", "setting": "1 uM CNL001, first column", "value": 65.987, "unit": "%"}, {"measurement": "YFP fluorescence quenching using CNL001", "setting": "1 uM CNL001, second column", "value": 64.312, "unit": "%"}, {"measurement": "YFP fluorescence quenching using CNL002", "setting": "1 uM CNL002", "value": 8.12, "unit": "%"}, {"measurement": "YFP fluorescence quenching using ABT-126", "setting": "1 uM abt", "value": 45.76, "unit": "%"}, {"measurement": "YFP fluorescence quenching using TC-5619/Bradanicline", "setting": "1 uM brd", "value": 77.42, "unit": "%"}, {"measurement": "YFP fluorescence quenching using TC-6987", "setting": "1 uM tc6987", "value": 2.51}, {"measurement": "YFP fluorescence quenching using Varenicline", "setting": "1 uM var, first column", "value": 66.17}, {"measurement": "YFP fluorescence quenching using Varenicline", "setting": "1 uM var, second column", "value": 66.088}, {"measurement": "YFP fluorescence quenching using ABT-126", "setting": "3 uM abt", "value": 53.03, "unit": "%"}, {"measurement": "YFP fluorescence quenching using ABT-126", "setting": "10 uM abt", "value": 64.08, "unit": "%"}, {"measurement": "YFP fluorescence quenching using Facinicline", "setting": "10 uM fac", "value": 82.16}, {"measurement": "YFP fluorescence quenching using TC-6987", "setting": "10 uM tc6987", "value": 46.22}, {"measurement": "YFP fluorescence quenching using CNL002", "setting": "30 uM CNL002", "value": 57.24, "unit": "%"}, {"measurement": "YFP fluorescence quenching using ABT-126", "setting": "30 uM abt", "value": 71.98, "unit": "%"}, {"measurement": "YFP fluorescence quenching using AZD-0328", "setting": "30 uM azd0328", "value": 80.55, "unit": "%"}, {"measurement": "YFP fluorescence quenching using Facinicline", "setting": "30 uM fac", "value": 81.71}, {"measurement": "YFP fluorescence quenching using ABT-126", "setting": "50 uM abt", "value": 73.98, "unit": "%"}, {"measurement": "YFP fluorescence quenching using ABT-126", "setting": "100 uM abt", "value": 73.51, "unit": "%"}, {"measurement": "YFP fluorescence quenching using TC-6987", "setting": "500 uM tc6987", "value": 68.33}, {"measurement": "percent quench of YFP fluorescence, 30 nM TC-6683", "setting": "TC-6683 30 nM", "value": "−16.26", "unit": "%"}, {"measurement": "percent quench of YFP fluorescence, 300 nM TC-6683", "setting": "TC-6683 300 nM", "value": "−22.45", "unit": "%"}, {"measurement": "percent quench of YFP fluorescence, 3 uM TC-6683", "setting": "TC-6683 3 uM", "value": "−13.48", "unit": "%"}, {"measurement": "percent quench of YFP fluorescence, 30 uM TC-6683", "setting": "TC-6683 30 uM", "value": "−12.68", "unit": "%"}, {"measurement": "percent quench of YFP fluorescence, 100 uM TC-6683", "setting": "TC-6683 100 uM", "value": "−10.33", "unit": "%"}, {"measurement": "percent quench of YFP fluorescence, 10 uM ach", "setting": "acetylcholine 10 uM", "value": "−2.57", "unit": "%"}, {"measurement": "percent quench of YFP fluorescence, 100 uM ach", "setting": "acetylcholine 100 uM", "value": "−3.18", "unit": "%"}, {"measurement": "percent quench of YFP fluorescence, 1 mM ach", "setting": "acetylcholine 1 mM", "value": 78.98, "unit": "%"}, {"measurement": "percent quench of YFP fluorescence, 3 mM ach", "setting": "acetylcholine 3 mM", "value": 75.75, "unit": "%"}]}]}
